Assay results: patent publication US20200148732A1 (UNIVERSITY OF COPENHAGEN, published 2020)

Target: T1, GFP-TONSL D604A (Homo sapiens, UniProt Q96HA7 1-1378)
T1 construct: also called TONSL D604A / GFP; not shown: N-terminal GFP tag
T1 sequence: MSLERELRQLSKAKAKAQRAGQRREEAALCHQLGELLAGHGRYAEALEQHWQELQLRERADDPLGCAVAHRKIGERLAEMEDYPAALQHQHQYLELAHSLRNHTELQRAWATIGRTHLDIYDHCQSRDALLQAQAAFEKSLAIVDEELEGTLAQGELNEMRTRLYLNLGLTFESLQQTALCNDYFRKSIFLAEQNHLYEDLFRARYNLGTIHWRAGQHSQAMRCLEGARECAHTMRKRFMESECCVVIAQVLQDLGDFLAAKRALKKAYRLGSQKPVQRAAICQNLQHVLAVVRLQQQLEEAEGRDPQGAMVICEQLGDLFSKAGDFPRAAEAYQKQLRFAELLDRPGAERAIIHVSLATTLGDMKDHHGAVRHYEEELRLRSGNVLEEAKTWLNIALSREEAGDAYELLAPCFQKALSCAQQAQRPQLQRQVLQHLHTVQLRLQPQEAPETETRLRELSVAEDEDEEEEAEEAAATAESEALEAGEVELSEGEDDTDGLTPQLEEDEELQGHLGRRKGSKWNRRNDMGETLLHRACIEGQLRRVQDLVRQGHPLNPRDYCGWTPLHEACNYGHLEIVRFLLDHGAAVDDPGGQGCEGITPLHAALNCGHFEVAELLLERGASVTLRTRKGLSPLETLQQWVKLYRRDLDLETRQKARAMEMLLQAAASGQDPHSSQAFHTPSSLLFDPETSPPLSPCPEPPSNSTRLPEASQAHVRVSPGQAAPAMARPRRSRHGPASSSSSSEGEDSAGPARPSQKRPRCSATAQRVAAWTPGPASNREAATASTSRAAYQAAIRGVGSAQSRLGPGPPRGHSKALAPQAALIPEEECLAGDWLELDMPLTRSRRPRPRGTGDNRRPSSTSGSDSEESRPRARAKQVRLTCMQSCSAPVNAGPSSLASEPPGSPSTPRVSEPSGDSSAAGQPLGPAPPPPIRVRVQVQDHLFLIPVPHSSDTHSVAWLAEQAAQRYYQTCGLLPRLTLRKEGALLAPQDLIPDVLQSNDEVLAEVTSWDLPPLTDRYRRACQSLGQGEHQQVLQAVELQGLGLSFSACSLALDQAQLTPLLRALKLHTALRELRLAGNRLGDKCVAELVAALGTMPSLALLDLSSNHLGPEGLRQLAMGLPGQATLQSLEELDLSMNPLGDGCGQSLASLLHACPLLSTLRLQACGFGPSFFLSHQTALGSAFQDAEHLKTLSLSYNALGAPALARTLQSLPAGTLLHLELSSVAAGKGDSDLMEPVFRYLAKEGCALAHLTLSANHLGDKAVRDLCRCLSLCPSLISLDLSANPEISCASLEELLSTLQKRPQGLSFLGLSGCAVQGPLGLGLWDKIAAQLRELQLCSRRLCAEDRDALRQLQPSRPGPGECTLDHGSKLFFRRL
Test: GFP immunoprecipitation of GFP-TONSL from transfected HeLa S3 cells, western blot (co-IP; association may be indirect)

B1: MMS22L (endogenous, in cell extracts) (other, UniProt Q6ZRQ5 1-1243, looked up)
chain: MENCSAASTFLTDSLELELGTEWCKPPYFSCAVDNRGGGKHFSGESYLCSGALKRLILNLDPLPTNFEEDTLEIFGIQWVTETALVNSSRELFHLFRQQLYNLETLLQSSCDFGKVSTLHCKADNIRQQCVLFLHYVKVFIFRYLKVQNAESHVPVHPYEALEAQLPSVLIDELHGLLLYIGHLSELPSVNIGAFVNQNQIKLFPPSWHLLHLHLDIHWLVLEILYMLGEKLKQVVYGHQFMNLASDNLTNISLFEEHCETLLCDLISLSLNRYDKVRSSESLMSDQCPCLCIKELWVLLIHLLDHRSKWFVSESFWNWLNKLLKTLLEKSSDRRRSSMPVIQSRDPLGFSWWIITHVASFYKFDRHGVPDEMRKVESNWNFVEELLKKSISVQGVILEEQLRMYLHCCLTLCDFWEPNIAIVTILWEYYSKNLNSSFSISWLPFKGLANTMKSPLSMLEMVKTCCCDKQDQELYKSSSSYTIFLCILAKVVKKAMKSNGPHPWKQVKGRIYSKFHQKRMEELTEVGLQNFFSLFLLLAAVAEVEDVASHVLDLLNFLKPAFVTSQRALIWKGHMAFLLMYAQKNLDIGVLAEKFSCAFREKAKEFLVSKNEEMVQRQTIWTLLSIYIDGVQEVFETSYCLYPSHEKLLNDGFSMLLRACRESELRTVLSFLQAVLARIRSMHQQLCQELQRDNVDLFVQSSLSAKERHLAAVASALWRHFFSFLKSQRMSQVVPFSQLADAAADFTLLAMDMPSTAPSDFQPQPVISIIQLFGWDDIICPQVVARYLSHVLQNSTLCEALSHSGYVSFQALTVRSWIRCVLQMYIKNLSGPDDLLIDKNLEEAVEKEYMKQLVKLTRLLFNLSEVKSIFSKAQVEYLSISEDPKKALVRFFEAVGVTYGNVQTLSDKSAMVTKSLEYLGEVLKYIKPYLGKKVFSAGLQLTYGMMGILVKSWAQIFATSKAQKLLFRIIDCLLLPHAVLQQEKELPAPMLSAIQKSLPLYLQGMCIVCCQSQNPNAYLNQLLGNVIEQYIGRFLPASPYVSDLGQHPVLLALRNTATIPPISSLKKCIVQVIRKSYLEYKGSSPPPRLASILAFILQLFKETNTDIYEVELLLPGILKCLVLVSEPQVKRLATENLQYMVKACQVGSEEEPSSQLTSVFRQFIQDYGMRYYYQVYSILETVATLDQQVVIHLISTLTQSLKDSEQKWGLGRNIAQREAYSKLLSHLGQMGQDEMQRLENDNT
- binding result: binds
